Laboratory results from US20130060011A1 (published 2013).

Assays:
human MCSP = human MCSP (human, UniProt Q6UVK1 30-2322); assay: cell-based or functional assay
human CD3 = human CD3 (human, UniProt P07766 23-207); assay: cell-based or functional assay
Sequence of human CD3 (P07766 23-207): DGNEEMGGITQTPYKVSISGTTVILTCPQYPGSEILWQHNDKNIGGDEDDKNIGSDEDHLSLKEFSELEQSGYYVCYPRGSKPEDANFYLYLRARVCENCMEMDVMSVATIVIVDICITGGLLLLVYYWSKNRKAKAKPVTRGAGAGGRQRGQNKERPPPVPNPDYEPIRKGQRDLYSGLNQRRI

Sequence of human MCSP (Q6UVK1 30-2322): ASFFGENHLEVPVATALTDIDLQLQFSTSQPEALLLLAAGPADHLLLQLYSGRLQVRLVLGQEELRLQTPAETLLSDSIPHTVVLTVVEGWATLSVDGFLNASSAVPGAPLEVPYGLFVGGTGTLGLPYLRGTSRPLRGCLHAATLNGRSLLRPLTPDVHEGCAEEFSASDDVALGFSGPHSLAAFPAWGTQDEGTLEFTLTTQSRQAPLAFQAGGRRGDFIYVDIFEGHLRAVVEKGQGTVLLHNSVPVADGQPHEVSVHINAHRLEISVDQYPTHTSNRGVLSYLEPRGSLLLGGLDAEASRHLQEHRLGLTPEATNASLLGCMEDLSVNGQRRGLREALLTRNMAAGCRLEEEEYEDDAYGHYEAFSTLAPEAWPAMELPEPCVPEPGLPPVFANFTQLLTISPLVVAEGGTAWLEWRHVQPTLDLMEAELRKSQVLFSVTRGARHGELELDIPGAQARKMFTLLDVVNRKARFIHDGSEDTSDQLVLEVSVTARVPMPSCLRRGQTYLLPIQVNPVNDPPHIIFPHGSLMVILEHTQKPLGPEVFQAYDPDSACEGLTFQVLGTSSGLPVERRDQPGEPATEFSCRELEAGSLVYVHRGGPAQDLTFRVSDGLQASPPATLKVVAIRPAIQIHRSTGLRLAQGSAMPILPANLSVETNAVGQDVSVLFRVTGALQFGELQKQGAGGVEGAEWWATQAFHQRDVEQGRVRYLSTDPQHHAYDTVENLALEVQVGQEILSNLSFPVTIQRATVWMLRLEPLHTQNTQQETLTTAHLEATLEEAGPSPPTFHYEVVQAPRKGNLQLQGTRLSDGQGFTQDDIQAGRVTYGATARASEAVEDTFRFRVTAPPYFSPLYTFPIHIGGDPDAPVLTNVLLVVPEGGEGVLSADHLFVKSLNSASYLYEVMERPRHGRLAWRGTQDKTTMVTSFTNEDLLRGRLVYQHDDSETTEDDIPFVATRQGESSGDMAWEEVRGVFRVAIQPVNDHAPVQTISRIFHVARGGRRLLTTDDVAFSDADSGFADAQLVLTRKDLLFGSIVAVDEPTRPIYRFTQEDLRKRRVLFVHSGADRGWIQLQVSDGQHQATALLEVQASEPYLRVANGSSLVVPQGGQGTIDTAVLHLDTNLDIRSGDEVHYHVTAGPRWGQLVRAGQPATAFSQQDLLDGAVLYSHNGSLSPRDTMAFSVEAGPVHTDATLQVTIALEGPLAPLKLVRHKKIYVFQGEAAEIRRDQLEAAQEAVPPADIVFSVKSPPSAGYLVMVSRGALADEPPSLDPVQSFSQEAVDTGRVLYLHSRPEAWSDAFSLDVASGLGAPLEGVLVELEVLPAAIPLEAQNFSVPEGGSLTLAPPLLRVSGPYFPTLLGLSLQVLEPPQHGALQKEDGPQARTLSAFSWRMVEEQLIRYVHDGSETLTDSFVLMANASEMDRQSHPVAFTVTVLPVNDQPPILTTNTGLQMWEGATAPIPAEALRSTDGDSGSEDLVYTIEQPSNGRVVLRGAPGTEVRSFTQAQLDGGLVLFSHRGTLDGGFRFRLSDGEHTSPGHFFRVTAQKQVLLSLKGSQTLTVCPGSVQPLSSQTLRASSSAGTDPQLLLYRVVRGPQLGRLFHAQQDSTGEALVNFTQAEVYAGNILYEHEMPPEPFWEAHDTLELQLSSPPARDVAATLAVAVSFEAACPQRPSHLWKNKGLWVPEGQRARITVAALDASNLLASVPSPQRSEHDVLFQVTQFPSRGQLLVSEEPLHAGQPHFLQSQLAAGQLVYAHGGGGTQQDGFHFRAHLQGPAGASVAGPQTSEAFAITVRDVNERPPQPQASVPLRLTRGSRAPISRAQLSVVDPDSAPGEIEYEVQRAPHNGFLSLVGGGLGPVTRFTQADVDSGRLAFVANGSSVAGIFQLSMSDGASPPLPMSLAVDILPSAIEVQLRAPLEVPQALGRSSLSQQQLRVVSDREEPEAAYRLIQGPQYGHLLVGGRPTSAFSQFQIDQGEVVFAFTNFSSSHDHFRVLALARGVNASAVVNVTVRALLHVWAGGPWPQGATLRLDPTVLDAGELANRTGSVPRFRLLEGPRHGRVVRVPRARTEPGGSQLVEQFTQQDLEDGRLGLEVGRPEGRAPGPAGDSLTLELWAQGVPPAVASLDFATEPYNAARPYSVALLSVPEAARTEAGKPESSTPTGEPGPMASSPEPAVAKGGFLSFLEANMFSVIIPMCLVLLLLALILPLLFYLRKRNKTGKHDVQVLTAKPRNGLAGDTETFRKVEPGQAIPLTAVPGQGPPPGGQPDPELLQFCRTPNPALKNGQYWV

B1: hu Fab (MCSP)-Crossfab (CD3) (bispecific antibody)
heavy: EVQLQESGPGLVKPSQSLSLTCSVTGYSITSGYYWNWIRQFPGNKLEWMGYITYDGSNNYNPSLKNRISITRDTSKNQFFLKLNSVTTEDTATYYCADFDYWGQGTTLTVSSASTKGPSVFPLAPSSKSTSGGTAALGCLVKDYFPEPVTVSWNSGALTSGVHTFPAVLQSSGLYSLSSVVTVPSSSLGTQTYICNVNHKPSNTKVDKKVEPKSCDGGGGSGGGGSDIQMTQSPSSLSASVGDRVTITCRASQDIRNYLNWYQQKPGKAPKLLIYYTSRLESGVPSRFSGSGSGTDYTLTISSLQPEDFATYYCQQGNTLPWTFGQGTKVEIKSSASTKGPSVFPLAPSSKSTSGGTAALGCLVKDYFPEPVTVSWNSGALTSGVHTFPAVLQSSGLYSLSSVVTVPSSSLGTQTYICNVNHKPSNTKVDKKVEPKSC
light: DIVLTQSPSSLSASLGDRVTISCSASQGIRNYLNWYQQRPDGTVKLLIYYTSSLHSGVPSRFSGSGSGTDYSLTISNLEPEDIATYYCQQYSKLPWTFGGGTKLEIKRTVAAPSVFIFPPSDEQLKSGTASVVCLLNNFYPREAKVQWKVDNALQSGNSQESVTEQDSKDSTYSLSSTLTLSKADYEKHKVYACEVTHQGLSSPVTKSFNRGEC
chain: EVQLVESGGGLVQPGGSLRLSCAASGYSFTGYTMNWVRQAPGKGLEWVALINPYKGVSTYNQKFKDRFTISVDKSKNTAYLQMNSLRAEDTAVYYCARSGYYGDSDWYFDVWGQGTLVTVSSASVAAPSVFIFPPSDEQLKSGTASVVCLLNNFYPREAKVQWKVDNALQSGNSQESVTEQDSKDSTYSLSSTLTLSKADYEKHKVYACEVTHQGLSSPVTKSFNRGEC
Human MCSP
  Killing (as measured by LDH release) of MV-3 tumor cells upon co-culture with human PBMCs (E:T ratio=10:1), 24 hours; EC50: 0.0254 nM
Human CD3
  Killing (as measured by LDH release) of MV-3 tumor cells upon co-culture with human PBMCs (E:T ratio=10:1), 24 hours; EC50: 0.0254 nM

B2: (scFv)2 (antiMCSP/anti huCD3e) (bispecific antibody)
scFv: DIVLTQSPSSLSASLGDRVTISCSASQGIRNYLNWYQQRPDGTVKLLIYYTSSLHSGVPSRFSGSGSGTDYSLTISNLEPEDIATYYCQQYSKLPWTFGGGTKLEIKGGGGSGGGGSGGGGSEVQLQESGPGLVKPSQSLSLTCSVTGYSITSGYYWNWIRQFPGNKLEWMGYITYDGSNNYNPSLKNRISITRDTSKNQFFLKLNSVTTEDTATYYCADFDYWGQGTTLTVSSGGGGSEVQLVESGGGLVQPGGSLRLSCAASGYSFTGYTMNWVRQAPGKGLEWVALINPYKGVSTYNQKFKDRFTISVDKSKNTAYLQMNSLRAEDTAVYYCARSGYYGDSDWYFDVWGQGTLVTVSSVEGGSGGSGGSGGSGGVDDIQMTQSPSSLSASVGDRVTITCRASQDIRNYLNWYQQKPGKAPKLLIYYTSRLESGVPSRFSGSGSGTDYTLTISSLQPEDFATYYCQQGNTLPWTFGQGTKVEIKHHHHHH
Human MCSP
  Killing (as measured by LDH release) of MV-3 tumor cells upon co-culture with human PBMCs (E:T ratio=10:1), 24 hours; EC50: 0.057 nM
Human CD3
  Killing (as measured by LDH release) of MV-3 tumor cells upon co-culture with human PBMCs (E:T ratio=10:1), 24 hours; EC50: 0.057 nM
